Target: TcdA^(1–542 D285/287N)-EGFP (Clostridium difficile (strain VPI 10463), UniProt P16154 1-542)
Assay: MST
Conditions: both partners purified

B1: isolated TcdA CROPs (TcdA^1875–2710) (domain or fragment)
chain: YKIINGKHFYFNNDGVMQLGVFKGPDGFEYFAPANTQNNNIEGQAIVYQSKFLTLNGKKYYFDNNSKAVTGWRIINNEKYYFNPNNAIAAVGLQVIDNNKYYFNPDTAIISKGWQTVNGSRYYFDTDTAIAFNGYKTIDGKHFYFDSDCVVKIGVFSTSNGFEYFAPANTYNNNIEGQAIVYQSKFLTLNGKKYYFDNNSKAVTGLQTIDSKKYYFNTNTAEAATGWQTIDGKKYYFNTNTAEAATGWQTIDGKKYYFNTNTAIASTGYTIINGKHFYFNTDGIMQIGVFKGPNGFEYFAPANTDANNIEGQAILYQNEFLTLNGKKYYFGSDSKAVTGWRIINNKKYYFNPNNAIAAIHLCTINNDKYYFSYDGILQNGYITIERNNFYFDANNESKMVTGVFKGPNGFEYFAPANTHNNNIEGQAIVYQNKFLTLNGKKYYFDNDSKAVTGWQTIDGKKYYFNLNTAEAATGWQTIDGKKYYFNLNTAEAATGWQTIDGKKYYFNTNTFIASTGYTSINGKHFYFNTDGIMQIGVFKGPNGFEYFAPANTDANNIEGQAILYQNKFLTLNGKKYYFGSDSKAVTGLRTIDGKKYYFNTNTAVAVTGWQTINGKKYYFNTNTSIASTGYTIISGKHFYFNTDGIMQIGVFKGPDGFEYFAPANTDANNIEGQAIRYQNRFLYLHDNIYYFGNNSKAATGWVTIDGNRYYFEPNTAMGANGYKTIDNKNFYFRNGLPQIGVFKGSNGFEYFAPANTDANNIEGQAIRYQNRFLHLLGKIYYFGNNSKAVTGWQTINGKVYYFMPDTAMAAAGGLFEIDGVIYFFGVDGVKAPGIYG
B1 was tested, and the Kd was 2960 ± 180 nM.
